Assay results: paper PMC3291989

Target: catalase (PktA) from Psychrobacter piscatorii T-3 (Psychrobacter piscatorii T-3)
Experiment: SEC; gel filtration on two Protein PAK 300 columns, 0.1 M potassium phosphate buffer (pH 7.0), against mass standards; native mass compared with the subunit mass by SDS-PAGE

catalase (PktA) from Psychrobacter piscatorii T-3 (enzyme)
stoichiometry N: 4
